One substance from publication PMC8693863 can be followed below.

In the experiment the target is Myomaker (MYMK) (mouse (endogenous in primary myoblasts)) (UniProt Q9D1N4). The experiment can be described thus: proximity ligation; Duolink PLA on primary mouse myoblasts fixed with 4% PFA, 24 h after DMSO (Ctrl) or ERKi; antibody pairs anti-TMEM8C + anti-CaMKII, or anti-CaMKII + anti-Rac1; mean fluorescent intensity normalized to nuclei number per field.
Chain of UniProt Q9D1N4 (Q9D1N4 whole entry): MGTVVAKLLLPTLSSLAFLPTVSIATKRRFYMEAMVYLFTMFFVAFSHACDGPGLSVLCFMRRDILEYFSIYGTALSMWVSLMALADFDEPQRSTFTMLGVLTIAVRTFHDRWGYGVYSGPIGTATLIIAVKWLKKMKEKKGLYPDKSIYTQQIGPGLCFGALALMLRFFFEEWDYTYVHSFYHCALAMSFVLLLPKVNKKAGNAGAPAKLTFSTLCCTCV

On to “CaMKII (from UniProt Q6PHZ2 1-499) (natural protein)”, for which the fold increase of PLA signal mean fluorescent intensity, ERKi against DMSO control was 2.9 fold.
